Laboratory results as given in paper PMC10558600.
Like-named read-outs stand apart in the source and are kept apart here.

Experiments:
[1] = biological target: Aedes aegypti membrane-bound alkaline phosphatase (Aa-mALP) (Aedes aegypti); assay: ELISA
[2] = biological target: Aedes aegypti membrane-bound alkaline phosphatase (Aa-mALP) (Aedes aegypti); assay: ELISA; remark: listed apart in the source

## 65 kDa trypsin-activated Cry4Ba-R203Q toxin (natural protein)
[1]
  Kd: 76.5 nM
[2]
  Kd: 76.2 nM
